Reference: the DeepSol protein solubility set

Assay: soluble on expression in E. coli; label from the status in PepcDB or PDB records

Row | Sequence | soluble on expression in E. coli
1 | MSLGKISFPVGVLFSGSGSYAQPARQGFRGAMTAIAHINASRRFPFNLQAHHFDPAGEADRYASLCRQLIRERDVRHVVGCTTSWSRKEAIPVVEKLDALLWYPCVYEGFEVSENLIYVAACANQHLVPLLDYIAPRFGSRAMLVGANYIWGWENNRIARDILHRSGGEVLGERFVSIGDTDIDHLIDEVREKRPDFILNNLIGPSSYAFLRAYQALGEADDRFRPEKCPIISCNLYEGEITGLGHAAAGHFTVSCYFRTLQSPENDSFLKTLAALDPGAIVDAFYAQAFSAVVMIAEAIMRCGSDDADLVRGALRGQSVDTPLGAISVDRWTNHVELPAHIGRARADGSFEIVKREGHHHHHH | not soluble
2 | MGHVDREDLLNVIRHELRLEDDDGPGLCSRLLLNPDRKCRAGGLPLDFRLKNGDLMDDGDAGFDDIYEIPLYEEPIHTRTLINDSLALRTAEKIKEEGRRDNFYTGPLDELFVKQEVNWPPKTPISTEKSAIERYLEENSANLNNPLGEYSKFAATTTDPSRQIEIIIPMSCDEEIGFKTLKIEVLTTARIREVIGYCLLQYYLTFDSYLPGEVDDYQFYLAEEDGEIEHELPPLDSSKLVGQVGFTCLGLVSRIKKNGNSRQKRAVAVWFVDKDQYVIEVDNMEKPLRWLRDEAFRLREETVKEREPLFQGLLDIKEYYMEAVDNFDVKLDLEASISSARSLEFVMIRKNSSRAGFHPRGGRYGRQMSAMLTLKMPNSPIAAGPMTPLPTVMEESPAVAGTSNGFGFPKAESCGAIASTPGVTWNDDGGQLSSFIVQRIHKFKPKWKANLSTVV | not soluble
3 | MGSDKIHHHHHHMDAILECCAGLDVHQETVVACILFGSLESKPKKTIRTFSTTTSDLLALTDWLEEEKCSHVAMESTGVYWKPVWNILEAGSFQLSLANAQRIKNLPGRKTDVKDAEWIAQLLRSGLIQGSFVPPAEIRDLRDLTRYRKKLLQDATQEKNRIHKILQDANIKITTYISDIFGVSGRNIMESLMDGEVITVEKLNQMVKGKVKSKIPGLADALNHRLRSHHRDMIRYSWSHLKFLEQSLINVEQKISECMAPYQQEVELLTSIPGINQTSSAIMIAELGADMSVFPTDSQLSSWAGVSPGNNESAGKKKEGVFPQETKR | not soluble
4 | MKQRPKEYYEQLEELQAVDFTLVELTLYLDTHPTDYQAIQQFNQLAQKRKQLKKQFEAAYGPLEQFGHSYSNYPWNWDDTPWPWQV | not soluble
5 | MKAVVFDFDGTMLDTENLWYTETMKYLKDTYNIDLPDEIYQQIIGTSEEPIISYMMEATNGAFDKEAFLTTVAEACHLGQQSLGFRNGFKEFFEQVKANGYKIGLATSSGFDWIEPTLDRLGILADFETIQTADHVEEIKPHPALYLQAVEALGVKPEEAIAIEDSKNGALSALQAGLKVYIVPNEATKNITFPKEATVVSSFAEIKLK | not soluble
6 | MGSDKIHHHHHHMNKLEIENLSKIYGKKVANDKITVTLENGVYGLLGPNGAGKSTLMKQITTLIKPDEGQILYNGEDIFKMDADYRNILGYLPQEFGVYKNFTAKEFLQYIGALKGLRGKYLNSKIGELLDLVGLYDVRNKSIGKFSGGMKRRVGIAQVLLNDPKIIVLDEPTAGLDPQERARFRNLIAKMSRDKIIILSTHIISDIESVAKETIMIKDGKLLMKGTHKDILSHMENKVYNVQVKNECEVDDIQSKYKVVSIQSDINSIVLRIVSEDIPSEDNIQPVQAKFEDVYMFYFDLEDAREV | not soluble
7 | MAHHHHHHMPTVSSSTPSPASTPTVGVPPGKVWLNADEPNDEYSLFCTEAIPPKVPGTVRIWVDGCFDMLHFGHANALRRARRLGDELFVGCHSDEEVMRFKGPPIMHAEERYEALRACKWVDHVVENYPYCTRLKDIERFEIDYVVHGDDISVDLNGRNSYQEIIDAGKFKVVKRTKGISTTDLVGRMLLCTKNHMLKSVDEVQLENSLLEHSPTMPCLTTSRKIVQFSNNSSPKPGDRIVYVDGSFDLFHIGHIRVLQKARELGDYVIAGVYEDQVVNEHKGKNYPIMSFNERVLGVLSCRYVDEVVMGVPFDVSKDVIDGLHINVVVGDKFSDLVVEEGGSTRYEVPKAMGIYHEVDSGCILSTDSLIDRVVENRLDFLKRQAEKRIKDTKSQEIKPDEYRKLREAS | not soluble
8 | MKLSVVMPVYNEKATLRAIYEQVAAVTIDKEIILVDDCSTDGTREIVRELGATGATVVLHDRNMGKGAALRSGFRHVTGDVVLIQDADLEYDPGQYPLLIQPILNGEVDVVYGSRFLSGERSLGMSFWNRAGNRILTYLSNTLTKLELTDVETCYKVFSRDVLERITIEENRFGCEPEITAKLAKLGVRIREVGISYRGRTSAEGKKIGWRDFISSVRCIAKYTLT | soluble
9 | MINLSNLSAVATSVARAALGESNTSKINHAFDVASHIAGQTALRVGNSLLEQINRLNERQQQGLSEILKALRGEKPVDGVHTHSGGGLFKLARAAFDVVSVVWERDKLKPHVMSFLKALDSQGKTLFSLGKEMAKAFAESVQGPDKNNGKTESSPYASFASKVGMSKVVQRLFNELGRPGAERVRRPTSGPAPRPGGAEQQARPETPPRTRPQANGAPPPPPKAEPRPSSGRPGGAQQQARPETPPRSRPQTNSAPPPPRAEPRPASGRPGGAQQQARPETPPRSRPQTNSAPPPPKAEPRPSSGRPGGAQQQARPETPPRSRPQTNNAPPPRSNNTAGASASAKVGESGPAKPAVKPLYEWLGLSDMTASPAAVKKAYYNASMKHHPDKNPGDAGATARFQDISNAFSILSDPEKRKAYDSGRMNEKGQYV | not soluble
10 | MGSDKIHHHHHHMRKMKNNDKSVITVDLNDPVKSLEYLEEAFQIGTFILKNSPVNFKRLAKVLSDLDTFYNLDFKTKIDISGQISGGGATRGYFPLGVESGLVDVFEKKESYSFGWPDNEIPDSDASNLSLVAPNIYPDHGYINPDDINGLIKDFANAAKKLSRLIEIILFNGKTVLPIDESSDFQSLLRSFRYYKKTEFDPPNTGANSLHTDWNLITLVYADADGYQYRDNEGNFQNIIPEMEDCLIVNFGDFLSAWTGGKIVSPWHQVVEAKKKDVRNSLVFFYYPAASSSAVKNPIYNQGEPLSLFVDQSDPLNRLWDFSKIETMNEMYAGKWKQVSRK | not soluble
11 | VRQRTIVCPLIQNDGAYLLCKMADDRGVFPGQWAISGGGVEPGERIEEALRREIREELGEQLLLTEITPWTFSDDIRTKTYADGRKEEIYMIYLIFDCVSANREVKINEEFQDYAWVKPEDLVHYDLNVATRKTLRLKGLL | soluble
12 | MVIRPVERSDVSALMQLASKTGGGLTSLPANEATLSARIERAIKTWQGELPKSEQGYVFVLEDSETGTVAGICAIEVAVGLNDPWYNYRVGTLVHASKELNVYNALPTLFLSNDHTGSSELCTLFLDPDWRKEGNGYLLSKSRFMFMAAFRDKFNDKVVAEMRGVIDEHGYSPFWQSLGKRFFSMDFSRADFLCGTGQKAFIAELMPKHPIYTHFLSQEAQDVIGQVHPQTAPARAVLEKEGFRYRNYIDIFDGGPTLECDIDRVRAIRKSRLVEVAEGQPAQGDFPACLVANENYHHFRVVLARTDPATERLILTAAQLDALKCHAGDRVRLVRLCAEEKTA | not soluble
13 | MTIEKEIEGLIHKTNKDLLNENANKDSRVFPTQRDLMAGIVSKHIAKNMVPSFIMKAHESGIIHVHDIDYSPALPFTNCCLVDLKGMLENGFKLGNAQIETPKSIGVATAIMAQITAQVASHQYGGTTFANVDKVLSPYVKRTYAKHIEDAEKWQIADALNYAQSKTEKDVYDAFQAYEYEVNTLFSSNGQTPFVTITFGTGTDWTERMIQKAILKNRIKGLGRDGITPIFPKLVMFVEEGVNLYKDDPNYDIKQLALECASKRMYPDIISAKNNKAITGSSVPVSPMGCRSFLSVWKDSTGNEILDGRNNLGVVTLNLPRIALDSYIGTQFNEQKFVELFNERMDLCFEALMCRISSLKGVKATVAPILYQEGAFGVRLKPDDDIIELFKNGRSSVSLGYIGIHELNILVGRDIGREILTKMNAHLKQWTERTGFAFSLYSTPAENLCYRFCKLDTEKYGSVKDVTDKGWYTNSFHVSVEENITPFEKISREAPYHFIATGGHISYVELPDMKNNLKGLEAVWDYAAQHLDYFGVNMPVDKCFTCGSTHEMTPTENGFVCSICGETDPKKMNTIRRTCAYLGNPNERGFNLGKNKEIMHRVKHQ | soluble
14 | GVSFFLVKEKMKGKNKLVPRLLGITKECVMRVDEKTKEVIQEWSLTNIKRWAASPKSFTLDFGDYQDGYYSVQTTEGEQIAQLIAGYIDIIL | soluble
15 | QVAKNPAPQAVEQAQSSSSLPAPSFADELDPVPGQQQASAKTITVTTDVLTLSIDTVGGDVVHADLNQYSAELDSSDPFVLLKDTQGHQFIAQSGLVGPQGIDLSSSNRPHYNVSADSFTLADGQDELRVPMTFTANGIEYTKTYVLKRGSYALNVEYDVANNSGNNATFGMYAHLRQNLMDAGGSITMPTYRGGAYSTEDTRYKKYSFEDMQDRNLSINLADGQGWAAMIQHYFAAAWIPRNEPGTNLYTRVIGNLGDIGVRMPNKTIATGDQAKFEATLWVGPKLQQEMAAVAPNLDLVVDYGWLWFIAKPLHS | not soluble
16 | MGSSHHHHHHSSGLVPRGSHMASMAGLGHPAAFGRATHAVVRALPESLGQHALRSAKGEEVDVARAERQHQLYVGVLGSKLGLQVVELPADESLPDCVFVEDVAVVCEETALITRPGAPSRRKEVDMMKEALEKLQLNIVEMKDENATLDGGDVLFTGREFFVGLSKRTNQRGAEILADTFKDYAVSTVPVADGLHLKSFCSMAGPNLIAIGSSESAQKALKIMQQMSDHRYDKLTVPDDIAANCIYLNIPNKGHVLLHRTPEEYPESAKVYEKLKDHMLIPVSMSELEKVDGLLTCCSVLINKKVDS | soluble
17 | MVEFSKESSTRVSVNSQRQISHVQKRELTKRKSVRFETQTVESTSEFVGKTNQEWTFVADCFNLDKETRSEREQELLSLCNFFDSNEKELELSDASDESDDSVPFELFAEQGMRIAWTQIVTSPSLSNLRLASILRFDTKKKIVSPFIEDEKSPQEFFLDDNEAVENAFKGVLPCTNSQKVSRSRRASKSEEENDFVTAKGSDFWSDVEF | not soluble
18 | LMRSPKQKQLEVDHANKTNLKPKAIVNCDLFQLGDYCVFTFKKLSFKQRFKQDFFARSKFSFRS | soluble
19 | MGSDKIHHHHHHMEYEIVIGLEVHAELATKTKMYCGCTAEFGGQPNTHVCPVCMGLPGALPHINKRAVDYGIKAGLALNCSITHIGRMDRKHIFYPDNSRNYQITQDELPLCTNGYIEIELEDGSKKKIGVERIHIEEDAGKLLHTNAGTLVDFNRCGVPLAEIVSKPDMRSPREAVTYLEELKSILSCVGVSDCKMEEGSLRCDANISVMKKGAKEFGVRTEIKNMNSFKAVEKALNYEYERHIKAIESGEKLTQETRRWDDAKNETAPMRSKEEANDYRYFPEGDLVTLNIDDEWIESIRKTIPELPYQKRERFIKEFGIPKYDASVLTLTMSMADFFEKTAKISGDAKSASNWLMGDISKIMKENYVWIEDLKFTPEQLSELIKLINEGTVSNAIGKKVIIKMFETGKSPKNIIEEEGLIQNSNEDEILNIVKEVLSENEKSIEDYKNGKNRVVGFLIGLVMKKTKGKANPKIVNKLMIDELNKQ | not soluble
20 | MELTKIRVKTIGYYHRDSEMKATPGRLPKNLNLACLTPMQNKEKFPNMNIEVLDSGKGELMMESLLDYISQTSCLQDEQPGFVTNKQLLVALTRTGSLAIHLFRWNGTTYLLKFNEDESVNQNFGAAFEHHCTKTDDPINENEPVRKAVMIAEIPRGKGVHSVLYSGQIDAVDNEVNRMHYELKVLSGGLTEHFWKTKSCMFYWQAVFGKADVLIIGSRTGKCPNDPKTTWPKEWPPFSVYQVETLEQNQIPESAAEECLKKVLMDPAPEWKPLEGEESVCYFLDLVEEYVKNNGDCYVFTRSDENPDWIVKEDEESVAEFRDVVRHYLAS | not soluble
21 | MGDRFDSARHRVEAAAIKAFAGEFDPQPFHLDEEAARHSLFGGLAASGWHTAAITMRLLVTSGLPLAQGIIGAGTELSWPNPTRPGDELHVETTVLAITPSKSRPDRAIVTCQSDTLNQRGEVVQRSTAKVVVFRRPLEHHHHHH | not soluble
